Measurements: publication PMC10167327 (2023)

B1: SPX2 (SPX domain of Vtc2, Vtc2(1–201)) (domain or fragment)
chain: MLFGVKLANEVYPPWKGSYINYEGLKKFLKEDSVKDGSNDKKARWDDSDESKFVEELDKELEKVYGFQLKKYNNLMERLSHLEKQTDTEAAIKALDADAFQRVLEELLSESTELDNFKRLNFTGFAKIVKKHDKLYPKYPSVKSLLEVRLKELPSHSEEYSPLLYRISFLYNILRSNFNTASEPLASASKFSSIVSNDIDM
B2: Vtc4* (Vtc4(1–487), SPX and TTM domains of Vtc4 without the transmembrane domain) (domain or fragment)
chain: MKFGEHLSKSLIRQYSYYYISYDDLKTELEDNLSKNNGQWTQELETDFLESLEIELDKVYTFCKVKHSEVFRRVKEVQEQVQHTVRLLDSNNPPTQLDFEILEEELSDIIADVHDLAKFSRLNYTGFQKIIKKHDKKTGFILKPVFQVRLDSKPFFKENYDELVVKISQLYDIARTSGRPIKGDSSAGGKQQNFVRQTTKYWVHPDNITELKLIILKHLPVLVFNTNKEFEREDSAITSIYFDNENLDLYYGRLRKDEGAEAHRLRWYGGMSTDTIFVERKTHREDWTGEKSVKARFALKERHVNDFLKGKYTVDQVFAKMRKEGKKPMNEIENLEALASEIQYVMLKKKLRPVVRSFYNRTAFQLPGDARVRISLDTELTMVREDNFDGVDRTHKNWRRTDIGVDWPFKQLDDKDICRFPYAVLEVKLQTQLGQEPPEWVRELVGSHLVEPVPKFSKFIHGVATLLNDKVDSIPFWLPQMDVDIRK
modifications: RED-tris-NTA 2nd generation dye on the His tag (MST); RED-NHS 2nd generation dye (MST with TTM2)
B3: SPX2∆α7 (Vtc2(1–182)) (domain or fragment)
chain: MLFGVKLANEVYPPWKGSYINYEGLKKFLKEDSVKDGSNDKKARWDDSDESKFVEELDKELEKVYGFQLKKYNNLMERLSHLEKQTDTEAAIKALDADAFQRVLEELLSESTELDNFKRLNFTGFAKIVKKHDKLYPKYPSVKSLLEVRLKELPSHSEEYSPLLYRISFLYNILRSNFNTAS

Columns and labels:
[1] = biological target: TTM4 (TTM domain of Vtc4, Vtc4(192–487)) (S. cerevisiae, UniProt P47075 192-487, RED-tris-NTA 2nd generation dye on the His tag); assay: MST
[2] = biological target: B2; assay: MST
[3] = biological target: B2; assay: MST; 2.5 mM 5-IP7
[4] = biological target: B2; assay: MST; +100 mM NaCl
[5] = biological target: B2; assay: MST; 2.5 mM IP6
SPX2 S189A = SPX2 S189A (S. cerevisiae, UniProt P43585 1-201, serine 189 to alanine); assay: MST
SPX2 S187A = SPX2 S187A (S. cerevisiae, UniProt P43585 1-201, serine 187 to alanine); assay: MST
SPX2 N121A = SPX2 N121A (S. cerevisiae, UniProt P43585 1-201, N121A); assay: MST
SPX2 Y19F = SPX2 Y19F (S. cerevisiae, UniProt P43585 1-201, Y19F); assay: MST
SPX2 K127A = SPX2 K127A (S. cerevisiae, UniProt P43585 1-201, K127A); assay: MST
[6] = biological target: B2; assay: MST; remark: listed apart in the source

Chain of TTM4 (TTM domain of Vtc4, Vtc4(192–487)) (P47075 192-487): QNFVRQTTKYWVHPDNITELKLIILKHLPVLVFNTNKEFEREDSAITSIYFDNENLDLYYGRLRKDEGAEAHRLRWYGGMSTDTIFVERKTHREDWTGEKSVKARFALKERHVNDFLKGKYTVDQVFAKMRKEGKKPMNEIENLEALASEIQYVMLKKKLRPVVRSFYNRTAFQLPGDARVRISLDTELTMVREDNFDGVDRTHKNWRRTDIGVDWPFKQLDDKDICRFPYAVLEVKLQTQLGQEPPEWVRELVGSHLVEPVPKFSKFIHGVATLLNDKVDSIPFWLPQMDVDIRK

For B1, the Kd [1] was 264 µM, the Kd [2] was 18.8 µM and the Kd [3] was > 1200 µM. For the same binder, the Kd [4] was 91 µM and the Kd [5] was > 300 µM.

B2 showed a Kd (SPX2 S189A) of 71 µM, a Kd (SPX2 S187A) of 30 µM and a Kd (SPX2 N121A) of 118 µM. The Kd (SPX2 Y19F) was 633 µM and the Kd (SPX2 K127A) was 166 µM.

Work on B3 yielded a Kd [6] of 500 µM.
